The text below walks through data of paper PMC5433836 (Biochemistry, 2016).

“Also recorded” adds a separate entry of the source. Read-outs that look alike come from different tables or passages of the source. Where no end group is shown, it is not given here. The star is where a group is joined. RhodamineB = CCN(CC)c1ccc2c(-c3ccccc3C(=O)*)c3ccc(=[N+](CC)CC)cc-3oc2c1

For test [1], the target named is disulfide-stabilized Par-6 CRIB-PDZ (CRIB-PDZ^Q144C/L164C) (D. melanogaster). Nature of the test: ITC.
For another test, the target named is Crumbs CTD (UniProt P10040). Conditions: cited from earlier work.
Another test concerns the target Pals1 (UniProt Q8N3R9). The note with it: cited from earlier work.
In a further test the target is Par-6. The note with it: Cdc42-GTP:Par-6; cited from earlier work.
For another test, the system named is Par-6 PDZ^156–255. Nature of the test: 1H-15N HSQC NMR titration of PDZ^156–255 with peptide. It is filed as binding, D. melanogaster. Conditions: 25 °C, 0.1–0.25 mM 15N-labeled protein, 90% H2O/10% D2O, pH 5.5.
The target of test [2] is Par-6 CRIB-PDZ module (CRIB-PDZ^130–255) (D. melanogaster) (UniProt O97111). Nature of the test: fluorescence polarisation.
Test [3] addresses disulfide-stabilized Par-6 CRIB-PDZ (CRIB-PDZ^Q144C/L164C) (D. melanogaster). The experiment in a line: fluorescence polarisation. For orientation: Fluorescence polarisation rises when a labelled molecule tumbles more slowly, as on binding a larger partner.
Test [4] has as its target Par-6 PDZ domain (residues 156–255) (D. melanogaster) (UniProt O97111). Nature of the test: fluorescence polarisation.
Test [5] has as its target Cdc42:CRIB-PDZ^130–255 complex (Cdc42 loaded with GMPPNP) ( | D. melanogaster, UniProt P60953 1-191; O97111 130-255). Nature of the test: fluorescence polarisation.
The target of test [6] is Par-6 CRIB-PDZ module (CRIB-PDZ^130–255) (D. melanogaster) (UniProt O97111). Nature of the test: fluorescence polarisation. The source holds these as a separate data set.

Chain of Pals1 (Q8N3R9 whole entry): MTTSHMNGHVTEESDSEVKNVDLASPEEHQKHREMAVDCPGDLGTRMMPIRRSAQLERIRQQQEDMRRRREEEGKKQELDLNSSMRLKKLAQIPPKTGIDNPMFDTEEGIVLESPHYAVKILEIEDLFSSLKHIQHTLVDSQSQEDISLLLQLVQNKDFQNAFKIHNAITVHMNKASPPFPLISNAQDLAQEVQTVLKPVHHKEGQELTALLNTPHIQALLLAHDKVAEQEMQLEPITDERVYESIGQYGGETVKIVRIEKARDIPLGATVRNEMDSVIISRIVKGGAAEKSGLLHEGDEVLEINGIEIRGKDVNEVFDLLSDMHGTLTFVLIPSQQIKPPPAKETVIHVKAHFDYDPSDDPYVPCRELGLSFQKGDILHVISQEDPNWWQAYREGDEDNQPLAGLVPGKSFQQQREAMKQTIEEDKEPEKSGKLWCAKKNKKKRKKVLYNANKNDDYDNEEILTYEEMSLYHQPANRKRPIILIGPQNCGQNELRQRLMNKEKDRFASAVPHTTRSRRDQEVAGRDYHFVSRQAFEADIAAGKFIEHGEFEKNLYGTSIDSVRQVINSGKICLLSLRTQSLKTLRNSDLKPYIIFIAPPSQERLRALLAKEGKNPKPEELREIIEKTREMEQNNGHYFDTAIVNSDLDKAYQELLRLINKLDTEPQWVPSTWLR
Chain of Crumbs CTD (P10040 2110-2146): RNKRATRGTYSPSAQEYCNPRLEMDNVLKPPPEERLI

A word on the Kd: it is the equilibrium constant for the complex coming apart. A word on the stoichiometry N: it is the number of molecules, sites or subunits per partner or assembly. Regarding VKESLV peptide, in test [1], the dissociation constant Kd was determined as 17 µM, the dH is -3.4 kcal/mol and the stoichiometry N was determined as 1.09.

Consider Pals1 PDZ-SH3-GK (from UniProt Q8N3R9), for which the dissociation constant (Kd) with Crumbs CTD was 0.1 µM.

For Par-6 CRIB-PDZ (from UniProt Q9NPB6), the equilibrium dissociation constant (Kd) in the test with Pals1 was 6 µM.

Consider “Cdc42-GTP: monomeric GTPase Cdc42 bound to GTP; binds the CRIB module of Par-6”, for which, at Par-6, the Kd is ~0.05 µM and the binding energy was ~ 10 kcal/mol.

Take LPPEERLI [LPPEERLI]: the “HSQC titration behaviour / binding mode” value with Par-6 PDZ^156–255 is “Significant shifts were observed for many amino acids in and near the PDZ ligand binding cleft; also recorded: consistent with binding at a second, low affinity site”.

B1: modified Crumbs peptide lacking the proline residues (GEERLI) (peptide)
peptide: GEERLI
On to B1, for which, in test [1], the Kd was found to be 1.9 µM, the dH is -7.21 kcal/mol and the stoichiometry N was found to be 1.05.

B2: N-terminally Rhodamine B-labeled VKESLV peptide (peptide)
peptide: RhodamineB-VKESLV
Turning to B2, the equilibrium dissociation constant (Kd) in [2] amounted to 54 µM; in [3], 13 µM; in [4], 72 µM; in test [5] it was 6 µM.

B3: N-terminally Rhodamine B-labeled GEERLI peptide (peptide)
peptide: RhodamineB-GEERLI
As to B3, the Kd in test [2] worked out at 7.3 µM; in test [3], 2.5 µM; in test [4], 12 µM; in test [6] it was 7.2 µM; in test [5], 1.2 µM.
